Test results taken from patent publication US20120316071A1.

Key:
[1] = biological target: Recombinant Human DLL4 (R&D Systems Cat#1506-D4/CF) (human) (UniProt Q9NR61); assay: Multispot ECL (MSD), antigen spotted on plate, Fab 0.00391 uM; blank spot 576
[2] = biological target: rHuman P-Cadherin/Fc Chimera, CF (R&D Systems Cat#861-PC) (human) (UniProt P22223); assay: as above
[3] = biological target: rHuman ErbB2/Fc Chimera, CF (R&D Systems Cat#1129-ER) (human) (UniProt P04626); assay: as above
[4] = biological target: Recombinant Human DLL4 (R&D Systems Cat#1506-D4/CF) (human) (UniProt Q9NR61); assay: Multispot ECL (MSD), antigen spotted on plate, Fab […]; blank spot 6344
[5] = biological target: rHuman P-Cadherin/Fc Chimera, CF (R&D Systems Cat#861-PC) (human) (UniProt P22223); assay: as above
[6] = biological target: rHuman ErbB2/Fc Chimera, CF (R&D Systems Cat#1129-ER) (human) (UniProt P04626); assay: as above
[7] = biological target: Recombinant Human DLL4 (R&D Systems Cat#1506-D4/CF) (human) (UniProt Q9NR61); assay: Multispot ECL (MSD), antigen spotted on plate, Fab 0.01563 uM; blank spot 906
[8] = biological target: rHuman P-Cadherin/Fc Chimera, CF (R&D Systems Cat#861-PC) (human) (UniProt P22223); assay: as above
[9] = biological target: rHuman ErbB2/Fc Chimera, CF (R&D Systems Cat#1129-ER) (human) (UniProt P04626); assay: as above
[10] = biological target: Recombinant Human DLL4 (R&D Systems Cat#1506-D4/CF) (human) (UniProt Q9NR61); assay: Multispot ECL (MSD), antigen spotted on plate, Fab 0.0625 uM; blank spot 1738
[11] = biological target: rHuman P-Cadherin/Fc Chimera, CF (R&D Systems Cat#861-PC) (human) (UniProt P22223); assay: as above
[12] = biological target: rHuman ErbB2/Fc Chimera, CF (R&D Systems Cat#1129-ER) (human) (UniProt P04626); assay: as above
[13] = biological target: rHuman Notch-1/Fc Chimera, CF (R&D Systems Cat#3647-TK) (human) (UniProt P46531); assay: ECL multispot (MSD) assay, antigen spotted on plate, 20 nM Fab
[14] = biological target: rHuman IGF-1 sR, CF (R&D Systems Cat#391-GR) (human) (UniProt P08069); assay: as above
[15] = biological target: Recombinant Human DLL4 (R&D Systems Cat#1506-D4/CF) (human) (UniProt Q9NR61); assay: as above
[16] = biological target: rHuman EGF R/Fc Chimera, CF (R&D Systems Cat#344-ER) (human) (UniProt P00533); assay: as above
[17] = biological target: rHuman P-Cadherin/Fc Chimera, CF (R&D Systems Cat#861-PC) (human) (UniProt P22223); assay: as above
[18] = biological target: rHuman CD44/Fc Chimera, CF (R&D Systems Cat#3660-CD) (human) (UniProt P16070); assay: as above
[19] = biological target: rHuman Notch-1/Fc Chimera, CF (R&D Systems Cat#3647-TK) (human) (UniProt P46531); assay: ECL multispot (MSD), antigen spotted, Fab in solution
[20] = biological target: rHuman IGF-1 sR, CF (R&D Systems Cat#391-GR) (human) (UniProt P08069); assay: as above
[21] = biological target: Recombinant Human DLL4 (R&D Systems Cat#1506-D4/CF) (human) (UniProt Q9NR61); assay: as above
[22] = biological target: rHuman EGF R/Fc Chimera, CF (R&D Systems Cat#344-ER) (human) (UniProt P00533); assay: as above
[23] = biological target: rHuman P-Cadherin/Fc Chimera, CF (R&D Systems Cat#861-PC) (human) (UniProt P22223); assay: as above
[24] = biological target: rHuman HGF R/c-MET/Fc Chimera, CF (R&D Systems Cat#358-MT/CF) (human) (UniProt P08581); assay: as above
[25] = biological target: rHuman Erythropoietin R/Fc Chimera, CF (R&D Systems Cat#963-ER) (human) (UniProt P19235); assay: as above
[26] = biological target: rHuman ErbB2/Fc Chimera, CF (R&D Systems Cat#1129-ER) (human) (UniProt P04626); assay: as above
[27] = biological target: rHuman CD44/Fc Chimera, CF (R&D Systems Cat#3660-CD) (human) (UniProt P16070); assay: as above
[28] = biological target: rHuman Notch-1/Fc Chimera, CF (R&D Systems Cat#3647-TK) (human) (UniProt P46531); assay: ECL Multispot (MSD), antigen spotted, Fab
[29] = biological target: rHuman IGF-1 sR, CF (R&D Systems Cat#391-GR) (human) (UniProt P08069); assay: ECL Multispot (MSD), antigen spotted, Fab
[30] = biological target: Recombinant Human DLL4 (R&D Systems Cat#1506-D4/CF) (human) (UniProt Q9NR61); assay: ECL Multispot (MSD), antigen spotted, Fab
[31] = biological target: rHuman EGF R/Fc Chimera, CF (R&D Systems Cat#344-ER) (human) (UniProt P00533); assay: ECL Multispot (MSD), antigen spotted, Fab
[32] = biological target: rHuman P-Cadherin/Fc Chimera, CF (R&D Systems Cat#861-PC) (human) (UniProt P22223); assay: ECL Multispot (MSD), antigen spotted, Fab
[33] = biological target: rHuman HGF R/c-MET/Fc Chimera, CF (R&D Systems Cat#358-MT/CF) (human) (UniProt P08581); assay: ECL Multispot (MSD), antigen spotted, Fab
[34] = biological target: rHuman Erythropoietin R/Fc Chimera, CF (R&D Systems Cat#963-ER) (human) (UniProt P19235); assay: ECL Multispot (MSD), antigen spotted, Fab
[35] = biological target: rHuman CD44/Fc Chimera, CF (R&D Systems Cat#3660-CD) (human) (UniProt P16070); assay: ECL Multispot (MSD), antigen spotted, Fab
[36] = biological target: rHuman IGF-1 sR, CF (R&D Systems Cat#391-GR) (human) (UniProt P08069); assay: MSD multispot ECL, antigen spotted on plate; Fab 0.07438 uM; blank spot 2504
[37] = biological target: rHuman HGF R/c-MET/Fc Chimera, CF (R&D Systems Cat#358-MT/CF) (human) (UniProt P08581); assay: as above
[38] = biological target: rHuman ErbB2/Fc Chimera, CF (R&D Systems Cat#1129-ER) (human) (UniProt P04626); assay: as above
[39] = biological target: rHuman IGF-1 sR, CF (R&D Systems Cat#391-GR) (human) (UniProt P08069); assay: MSD multispot ECL, antigen spotted on plate; Fab 0.2975 uM; blank spot 5019
[40] = biological target: rHuman HGF R/c-MET/Fc Chimera, CF (R&D Systems Cat#358-MT/CF) (human) (UniProt P08581); assay: as above
[41] = biological target: rHuman ErbB2/Fc Chimera, CF (R&D Systems Cat#1129-ER) (human) (UniProt P04626); assay: as above
[42] = biological target: rHuman IGF-1 sR, CF (R&D Systems Cat#391-GR) (human) (UniProt P08069); assay: MSD multispot ECL, antigen spotted on plate; Fab 0.01859 uM; blank spot 1776
[43] = biological target: rHuman HGF R/c-MET/Fc Chimera, CF (R&D Systems Cat#358-MT/CF) (human) (UniProt P08581); assay: as above
[44] = biological target: rHuman ErbB2/Fc Chimera, CF (R&D Systems Cat#1129-ER) (human) (UniProt P04626); assay: as above
[45] = biological target: rHuman IGF-1 sR, CF (R&D Systems Cat#391-GR) (human) (UniProt P08069); assay: MSD multispot ECL, antigen spotted on plate; Fab 1.19 uM; blank spot 24999
[46] = biological target: rHuman HGF R/c-MET/Fc Chimera, CF (R&D Systems Cat#358-MT/CF) (human) (UniProt P08581); assay: as above
[47] = biological target: rHuman ErbB2/Fc Chimera, CF (R&D Systems Cat#1129-ER) (human) (UniProt P04626); assay: as above
[48] = biological target: rHuman ErbB2/Fc Chimera, CF (R&D Systems Cat#1129-ER) (human) (UniProt P04626); assay: Multispot ECL (MSD) assay, antigen spotted on plate, Fab at […]; blank spot 751
[49] = biological target: rHuman ErbB2/Fc Chimera, CF (R&D Systems Cat#1129-ER) (human) (UniProt P04626); assay: Multispot ECL (MSD) assay, antigen spotted on plate, Fab at 0.096 µM; blank spot 917
[50] = biological target: rHuman ErbB2/Fc Chimera, CF (R&D Systems Cat#1129-ER) (human) (UniProt P04626); assay: Multispot ECL (MSD) assay, antigen spotted on plate, Fab at […]; blank spot 2945
[51] = biological target: rHuman ErbB2/Fc Chimera, CF (R&D Systems Cat#1129-ER) (human) (UniProt P04626); assay: ECL Multispot (MSD), antigen spotted, Fab

## Fab VH1-46_IGHD2-15*01_IGHJ2*01 & L2_IGKJ1*01
[1]
  ECL signal: 1550
[2]
  ECL signal: 1960
[3]
  ECL signal: 1670
[4]
  ECL signal: 27700
[5]
  ECL signal: 25500
[6]
  ECL signal: 29600
[7]
  ECL signal: 4020
[8]
  ECL signal: 4940
[9]
  ECL signal: 4500
[10]
  ECL signal: 8050
[11]
  ECL signal: 7740
[12]
  ECL signal: 9030

## Fab VH3-23_IGHD2-21*01>3_IGHJ6*01 H100E/S108P V64A & V2-13_IGLJ2*01
[13]
  ECL signal/blank ratio (read-out not given): 3
[14]
  ECL signal/blank ratio (read-out not given): 1.2
[15]
  ECL signal/blank ratio (read-out not given): 2.7
[16]
  ECL signal/blank ratio (read-out not given): 9.1
[17]
  ECL signal/blank ratio (read-out not given): 30.6
[18]
  ECL signal/blank ratio (read-out not given): 2.2

## Fab VH3-23_IGHD3-10*01>3_IGHJ6*01 Y112V & O12_IGKJ1*01
[19]
  ECL signal/blank ratio: 1.4
[20]
  ECL signal/blank ratio: 0.8
[21]
  ECL signal/blank ratio: 2
[22]
  ECL signal/blank ratio: 1.2
[23]
  ECL signal/blank ratio: 9.8
[24]
  ECL signal/blank ratio: 1.3
[25]
  ECL signal/blank ratio: 4.3
[26]
  ECL signal/blank ratio: 1.6
[27]
  ECL signal/blank ratio: 1

## Fab VH3-23_IGHD3-10*01>3_IGHJ6*01 Y112G & O12_IGKJ1*01
[28]
  ECL signal/blank ratio: 3.3
[29]
  ECL signal/blank ratio: 2.3
[30]
  ECL signal/blank ratio: 2.2
[31]
  ECL signal/blank ratio: 2.1
[32]
  ECL signal/blank ratio: 1.4
[33]
  ECL signal/blank ratio: 2.3
[34]
  ECL signal/blank ratio: 1.6
[35]
  ECL signal/blank ratio: 2.5

## Fab VH1-46_IGHD6-13*01_IGHJ4*01 & L2_IGKJ1*01
[36]
  ECL signal: 5800
[37]
  ECL signal: 6610
[38]
  ECL signal: 7550
[39]
  ECL signal: 17400
[40]
  ECL signal: 17400
[41]
  ECL signal: 15100
[42]
  ECL signal: 3780
[43]
  ECL signal: 4570
[44]
  ECL signal: 5530
[45]
  ECL signal: 35200
[46]
  ECL signal: 45500
[47]
  ECL signal: 38400

## Fab VH1-46_IGHD6-13*01_IGHJ4*01 & A27_IGKJ1*01
[48]
  ECL signal: 2310
[49]
  ECL signal: 3360
[50]
  ECL signal: 11300

## Fab VH3-23_IGHD3-10*01>3_IGHJ6*01 Y112A & O12_IGKJ1*01
[28]
  ECL signal/blank ratio: 1.1
[29]
  ECL signal/blank ratio: 1.4
[30]
  ECL signal/blank ratio: 1.2
[32]
  ECL signal/blank ratio: 1.1
[33]
  ECL signal/blank ratio: 0.8
[34]
  ECL signal/blank ratio: 1.6
[51]
  ECL signal/blank ratio: 1.3
